Assay results as given in patent publication US20200347143A1 (GLENMARK PHARMACEUTICALS S A, published 2020).

T1: human OX40 on cells (human, UniProt P43489 29-277)
T1 sequence (looked up): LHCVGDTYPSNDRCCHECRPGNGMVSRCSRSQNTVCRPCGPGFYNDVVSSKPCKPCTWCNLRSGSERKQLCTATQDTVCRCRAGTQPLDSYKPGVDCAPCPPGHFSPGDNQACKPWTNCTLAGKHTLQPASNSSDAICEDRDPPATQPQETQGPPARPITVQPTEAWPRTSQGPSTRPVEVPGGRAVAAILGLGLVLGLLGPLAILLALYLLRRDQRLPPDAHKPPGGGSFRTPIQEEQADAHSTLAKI


Target: T1, human OX40 on cells
Experiment: cell-based or functional assay

% donor responder (>2), SEB assay, IL-2 release [%]	Mean, normalized IL-2 release, SEB assay	Binder
6	0.81	7H11 IgG1 LALA (antibody, V domains shown) VH: QVQLVQSGAEVKKPGASVKVSCKASGYTFTRYYMHWVRQAPGQGLEWMGWIYPGDGSTKYAQKFQGRVTMTRDTSISTAYMELSRLRSDDTAVYYCAREYGNYDYWGQGTLVTVSS VL: DIVMTQSPDSLAVSLGERATINCKSSQSLLNSGNQKNYLAWYQQKPGQPPKLLIYGASTRESGVPDRFSGSGSGTDFTLTISSLQAEDVAVYYCQNDHSYPYTFGQGTKLEIKR
0	1	Tetra-19 (bispecific antibody, human IgG1, kappa, L234A L235A) heavy 1: QVQLVQSGAEVKKPGASVKVSCKASGYTFTRYYMHWVRQAPGQGLEWMGWIYPGEGSTKYAQKFQGRVTMTRDTSISTAYMELSRLRSDDTAVYYCAREYGNYDYWGQGTLVTVSSASTKGPSVFPLAPSSKSTSGGTAALGCLVKDYFPEPVTVSWNSGALTSGVHTFPAVLQSSGLYSLSSVVTVPSSSLGTQTYICNVNHKPSNTKVDKKVEPKSCDKTHTCPPCPAPEAAGGPSVFLFPPKPKDTLMISRTPEVTCVVVDVSHEDPEVQFKWYVDGVEVHNAKTKPREEQYNSTFRVVSVLTVLHQDWLNGKEYKCKVSNKALPAPIEKTISKTKGQPREPAVYTLPPSREEMTKNQVKLVCLVTGFYPSDIAVEWESSGQPENNYYTTPPMLDSDGSFSLVSWLNVDKSRWQQGNIFSCSVMHEALHNRFTQKSLSLSPGGGGGTEVQLVESGGGLVQPGGSLRLSCAVSGYSITSDYAWNWIRQAPGKCLEWMGYISYSGSTAYNPSLKSRITISRDTSKNTFYLQMSSLRAEDTAVYYCARGPYNYLAYWGQGTLVTVSSGGGGSGGGGSGGGGSDIQLTQSPSSLSASVGDRVTITCRASESVDNYGISFMNWFQQKPGKAPKLLIYAASNQKSGVPSRFSGSGSGTDFTLTISSLQPEDFATYFCQQSKEVPLTFGCGTKVEIL heavy 2: QVQLVQSGAEVKKPGASVKVSCKASGYTFTRYYMHWVRQAPGQGLEWMGWIYPGEGSTKYAQKFQGRVTMTRDTSISTAYMELSRLRSDDTAVYYCAREYGNYDYWGQGTLVTVSSASTKGPSVFPLAPSSKSTSGGTAALGCLVKDYFPEPVTVSWNSGALTSGVHTFPAVLQSSGLYSLSSVVTVPSSSLGTQTYICNVNHKPSNTKVDKKVEPKSCDKTHTCPPCPAPEAAGGPSVFLFPPKPKDTLMISRTPEVTCVVVDVSHEDPEVKFNWYVDGVEVHNAKTKPREEQYNSTYRVVSVLTVLHQDWLNGKEYKCKVSNKALPAPIEKTISKAKGQPREPEVATFPPSRDELTKNQVTLVCLVTGFYPSDIAVEWESNGQPENNYKTDPPLLESQGSFALSSRLRVDKSRWQQGNVFSCSVMHEALHNHYTQKSLSLSPGGGGGTQVQLVQSGAEVKKPGASVKVSCKASGYTFTRYYMHWVRQAPGQGLEWMGWIYPGEGSTKYAQKFQGRVTMTRDTSISTAYMELSRLRSDDTAVYYCAREYGNYDYWGQGTLVTVSSASTKGPSVFPLAPSSKSTSGGTAALGCLVKDYFPEPVTVSWNSGALTSGVHTFPAVLQSSGLYSLSSVVTVPSSSLGTQTYICNVNHKPSNTKVDKKVEPKSC light: not shown
8	1.32	Tetra-21 (bispecific antibody, human IgG1, kappa, L234A L235A) heavy 1: QVQLVQSGAEVKKPGASVKVSCKASGYTFTRYYMHWVRQAPGQGLEWMGWIYPGEGSTKYAQKFQGRVTMTRDTSISTAYMELSRLRSDDTAVYYCAREYGNYDYWGQGTLVTVSSASTKGPSVFPLAPSSKSTSGGTAALGCLVKDYFPEPVTVSWNSGALTSGVHTFPAVLQSSGLYSLSSVVTVPSSSLGTQTYICNVNHKPSNTKVDKKVEPKSCDKTHTCPPCPAPEAAGGPSVFLFPPKPKDTLMISRTPEVTCVVVDVSHEDPEVQFKWYVDGVEVHNAKTKPREEQYNSTFRVVSVLTVLHQDWLNGKEYKCKVSNKALPAPIEKTISKTKGQPREPAVYTLPPSREEMTKNQVKLVCLVTGFYPSDIAVEWESSGQPENNYYTTPPMLDSDGSFSLVSWLNVDKSRWQQGNIFSCSVMHEALHNRFTQKSLSLSPGGGGGTEVQLVESGGGLVQPGGSLRLSCAVSGYSITSDYAWNWIRQAPGKCLEWMGYISYSGSTAYNPSLKSRITISRDTSKNTFYLQMSSLRAEDTAVYYCARGPYNYLAYWGQGTLVTVSSGGGGSGGGGSGGGGSDIQLTQSPSSLSASVGDRVTITCRASESVDNYGISFMNWFQQKPGKAPKLLIYAASNQKSGVPSRFSGSGSGTDFTLTISSLQPEDFATYFCQQSKEVPLTFGCGTKVEIL heavy 2: EVQLVESGGGLVQPGGSLRLSCAVSGYSITSDYAWNWIRQAPGKCLEWMGYISYSGSTAYNPSLKSRITISRDTSKNTFYLQMNSLRAEDTAVYYCARGPYNYLAYWGQGTLVTVSSGGGGSGGGGSGGGGSDIQLTQSPSSLSASVGDRVTITCRASESVDNYGISFMNWFQQKPGKAPKLLIYAASNQKSGVPSRFSGSGSGTDFTLTISSLQPEDFATYFCQQSKEVPLTFGCGTKVEIKRTGGGGTDKTHTCPPCPAPEAAGGPSVFLFPPKPKDTLMISRTPEVTCVVVDVSHEDPEVKFNWYVDGVEVHNAKTKPREEQYNSTYRVVSVLTVLHQDWLNGKEYKCKVSNKALPAPIEKTISKAKGQPREPEVATFPPSRDELTKNQVTLVCLVTGFYPSDIAVEWESNGQPENNYKTDPPLLESQGSFALSSRLRVDKSRWQQGNVFSCSVMHEALHNHYTQKSLSLSPGGGGGTQVQLVQSGAEVKKPGASVKVSCKASGYTFTRYYMHWVRQAPGQGLEWMGWIYPGEGSTKYAQKFQGRVTMTRDTSISTAYMELSRLRSDDTAVYYCAREYGNYDYWGQGTLVTVSSASTKGPSVFPLAPSSKSTSGGTAALGCLVKDYFPEPVTVSWNSGALTSGVHTFPAVLQSSGLYSLSSVVTVPSSSLGTQTYICNVNHKPSNTKVDKKVEPKSC light: not shown
25	1.45	2H6 IgG1 LALA (antibody) heavy: not shown light: DIQLTQSPSSLSASVGDRVTITCRASESVDNYGISFMNWFQQKPGKAPKLLIYAASNQKSGVPSRFSGSGSGTDFTLTISSLQPEDFATYFCQQSKEVPLTFGQGTKVEIKRTVAAPSVFIFPPSDEQLKSGTASVVCLLNNFYPREAKVQWKVDNALQSGNSQESVTEQDSKDSTYSLSSTLTLSKADYEKHKVYACEVTHQGLSSPVTKSFNRGEC
40	1.65	Tetra-14 (bispecific antibody, human IgG1, kappa, L234A L235A) heavy: not shown light: DIQLTQSPSSLSASVGDRVTITCRASESVDNYGISFMNWFQQKPGKAPKLLIYAASNQKSGVPSRFSGSGSGTDFTLTISSLQPEDFATYFCQQSKEVPLTFGQGTKVEIKRTVAAPSVFIFPPSDEQLKSGTASVVCLLNNFYPREAKVQWKVDNALQSGNSQESVTEQDSKDSTYSLSSTLTLSKADYEKHKVYACEVTHQGLSSPVTKSFNRGEC
0	0.88	Tetra-18 (antibody, human IgG1, kappa, L234A L235A) heavy: not shown light: DIQLTQSPSSLSASVGDRVTITCRASESVDNYGISFMNWFQQKPGKAPKLLIYAASNQKSGVPSRFSGSGSGTDFTLTISSLQPEDFATYFCQQSKEVPLTFGQGTKVEIKRTVAAPSVFIFPPSDEQLKSGTASVVCLLNNFYPREAKVQWKVDNALQSGNSQESVTEQDSKDSTYSLSSTLTLSKADYEKHKVYACEVTHQGLSSPVTKSFNRGEC
0	0.93	Tetra-15 (antibody, human IgG1, kappa, L234A L235A) heavy: not shown light: DIQLTQSPSSLSASVGDRVTITCRASESVDNYGISFMNWFQQKPGKAPKLLIYAASNQKSGVPSRFSGSGSGTDFTLTISSLQPEDFATYFCQQSKEVPLTFGQGTKVEIKRTVAAPSVFIFPPSDEQLKSGTASVVCLLNNFYPREAKVQWKVDNALQSGNSQESVTEQDSKDSTYSLSSTLTLSKADYEKHKVYACEVTHQGLSSPVTKSFNRGEC
0	1.14	Tetra-20 (bispecific antibody, human IgG1, kappa, L234A L235A) heavy 1: EVQLVESGGGLVQPGGSLRLSCAVSGYSITSDYAWNWIRQAPGKGLEWMGYISYSGSTAYNPSLKSRITISRDTSKNTFYLQMSSLRAEDTAVYYCARGPYNYLAYWGQGTLVTVSSASTKGPSVFPLAPSSKSTSGGTAALGCLVKDYFPEPVTVSWNSGALTSGVHTFPAVLQSSGLYSLSSVVTVPSSSLGTQTYICNVNHKPSNTKVDKKVEPKSCDKTHTCPPCPAPEAAGGPSVFLFPPKPKDTLMISRTPEVTCVVVDVSHEDPEVQFKWYVDGVEVHNAKTKPREEQYNSTFRVVSVLTVLHQDWLNGKEYKCKVSNKALPAPIEKTISKTKGQPREPAVYTLPPSREEMTKNQVKLVCLVTGFYPSDIAVEWESSGQPENNYYTTPPMLDSDGSFSLVSWLNVDKSRWQQGNIFSCSVMHEALHNRFTQKSLSLSPGGGGGTQVQLVQSGAEVKKPGASVKVSCKASGYTFTRYYMHWVRQAPGQCLEWMGWIYPGEGSTKYAQKFQGRVTMTRDTSISTAYMELSRLRSDDTAVYYCAREYGNYDYWGQGTLVTVSSGGGGSGGGGSGGGGSDIVMTQSPDSLAVSLGERATINCKSSQSLLNSGNQKNYLAWYQQKPGQPPKLLIYGASTRESGVPDRFSGSGSGTDFTLTISSLQAEDVAVYYCQNDHSYPYTFGCGTKLEIL heavy 2: EVQLVESGGGLVQPGGSLRLSCAVSGYSITSDYAWNWIRQAPGKGLEWMGYISYSGSTAYNPSLKSRITISRDTSKNTFYLQMNSLRAEDTAVYYCARGPYNYLAYWGQGTLVTVSSASTKGPSVFPLAPSSKSTSGGTAALGCLVKDYFPEPVTVSWNSGALTSGVHTFPAVLQSSGLYSLSSVVTVPSSSLGTQTYICNVNHKPSNTKVDKKVEPKSCDKTHTCPPCPAPEAAGGPSVFLFPPKPKDTLMISRTPEVTCVVVDVSHEDPEVKFNWYVDGVEVHNAKTKPREEQYNSTYRVVSVLTVLHQDWLNGKEYKCKVSNKALPAPIEKTISKAKGQPREPEVATFPPSRDELTKNQVTLVCLVTGFYPSDIAVEWESNGQPENNYKTDPPLLESDGSFALSSRLRVDKSRWQQGNVFSCSVMHEALHNHYTQKSLSLSPGGGGGTEVQLVESGGGLVQPGGSLRLSCAVSGYSITSDYAWNWIRQAPGKGLEWMGYISYSGSTAYNPSLKSRITISRDTSKNTFYLQMNSLRAEDTAVYYCARGPYNYLAYWGQGTLVTVSSASTKGPSVFPLAPSSKSTSGGTAALGCLVKDYFPEPVTVSWNSGALTSGVHTFPAVLQSSGLYSLSSVVTVPSSSLGTQTYICNVNHKPSNTKVDKKVEPKSC light: DIQLTQSPSSLSASVGDRVTITCRASESVDNYGISFMNWFQQKPGKAPKLLIYAASNQKSGVPSRFSGSGSGTDFTLTISSLQPEDFATYFCQQSKEVPLTFGQGTKVEIKRTVAAPSVFIFPPSDEQLKSGTASVVCLLNNFYPREAKVQWKVDNALQSGNSQESVTEQDSKDSTYSLSSTLTLSKADYEKHKVYACEVTHQGLSSPVTKSFNRGEC
